First the molecules themselves.
T1: soluble H-2K^b (K^bsol), empty heterodimer of truncated K^b heavy chain and murine β-2 microglobulin (murine), P01901
T1 chain 1: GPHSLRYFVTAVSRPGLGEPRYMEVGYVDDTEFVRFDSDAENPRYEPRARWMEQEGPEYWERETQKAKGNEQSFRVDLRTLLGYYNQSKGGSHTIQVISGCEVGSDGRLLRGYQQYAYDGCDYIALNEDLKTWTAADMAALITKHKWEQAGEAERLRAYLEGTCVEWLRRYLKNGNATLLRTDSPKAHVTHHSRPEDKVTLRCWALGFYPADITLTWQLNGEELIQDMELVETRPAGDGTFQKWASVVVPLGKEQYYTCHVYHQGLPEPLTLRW
T1 chain 2: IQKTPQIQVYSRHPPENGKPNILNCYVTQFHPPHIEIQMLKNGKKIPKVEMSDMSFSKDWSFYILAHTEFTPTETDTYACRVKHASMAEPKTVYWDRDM

B1: OVA-10N peptide (peptide)
peptide: LESIINFEKL
modifications: not checked
B2: OVA-8 peptide (ovalbumin 257-264) (peptide)
peptide: SIINFEKL
modifications: not checked
B3: OVA-9C peptide (peptide)
peptide: SIINFEKLT
modifications: not checked
B4: OVA-24 peptide (peptide)
peptide: EQLESIINFEKLTEWTSSNVMEER
modifications: not checked
B5: OVA-10C peptide (peptide)
peptide: SIINFEKLTE
modifications: not checked

The experiment addresses T1, soluble H-2K^b (K^bsol), empty ….
For B1, the Kd (commonly the constant that tells how readily two partners part at equilibrium) was 280 nM.

B2 displayed a Kd of 4.1 nM.

As for B3, the Kd was found to be 11 nM.

For B4, the Kd is 71000 nM.

Turning to B5, the Kd amounted to 14 nM.

These data come from patent US6461867.
